Source: patent US20240092877A1 (DXDISCOVERY, published 2024)

T1: TcfA peptide amino acids 288-304 conjugated to bovine serum albumin (Bordetella pertussis, conjugated to bovine serum albumin (BSA))
T1 construct: Protein fragment coated on ELISA plates; BSA conjugate
T1 peptide: QLPERGDDAGPKPPEGE

T2: TcfA peptide amino acids 140-160 conjugated to bovine serum albumin (Bordetella pertussis, conjugated to bovine serum albumin (BSA))
T2 construct: Protein fragment coated on ELISA plates; BSA conjugate; also called aa140-160
T2 peptide: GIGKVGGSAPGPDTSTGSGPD

T3: TcfA peptide amino acids 305-323 conjugated to bovine serum albumin (Bordetella pertussis, conjugated to bovine serum albumin (BSA))
T3 construct: Protein fragment coated on ELISA plates; BSA conjugate
T3 peptide: GGDEGPQPPQGGGEQDAPE

T4: TcfA protein fragment amino acids 40-374 (Bordetella pertussis)
T4 construct: Not conjugated to BSA
T4 chain: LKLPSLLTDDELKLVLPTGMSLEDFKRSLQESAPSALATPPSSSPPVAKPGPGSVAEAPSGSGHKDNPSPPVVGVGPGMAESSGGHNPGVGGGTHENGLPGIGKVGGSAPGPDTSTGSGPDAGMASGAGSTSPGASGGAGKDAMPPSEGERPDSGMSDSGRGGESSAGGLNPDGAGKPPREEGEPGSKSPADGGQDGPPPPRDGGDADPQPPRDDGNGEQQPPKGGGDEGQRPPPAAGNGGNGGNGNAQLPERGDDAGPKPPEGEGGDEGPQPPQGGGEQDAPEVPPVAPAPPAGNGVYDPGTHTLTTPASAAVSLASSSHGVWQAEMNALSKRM

B1: anti-TcfA monoclonal antibody 14D12 (antibody, V domains shown)
VH: EVMLVESGGALVKPGGSLKLSCAASGITFSNYAMSWIRQTPEKRLEWVASISSGGSYIYYSDSVKGRFTISRDNARNTLNLQMSSLRSEDTAMYYCVRGAHGNFDYWGQGTTLTVSS
VL: DIVLTQSPASLAVSLGQRATISCRTSETVDYDGDSYMNWYQQKSGQPPKLLISGASNVESGVPARFSGSGSGTDFSLNIHPVEEDDITMYFCQQNRKLPYTFGSGTKLEMK
B2: anti-TcfA monoclonal antibody 10B1 (antibody, V domains shown)
VH: EVQLQQSGAELVKPGASVKLSCTASGFNIKDTYIHWVKQRPEQGLEWIGRIDPANGNTIYASKFQGKAPITAVTSSNTAYMQFSSLTSGDTAVYYCTAMDYWGQGTSVTVSS
VL: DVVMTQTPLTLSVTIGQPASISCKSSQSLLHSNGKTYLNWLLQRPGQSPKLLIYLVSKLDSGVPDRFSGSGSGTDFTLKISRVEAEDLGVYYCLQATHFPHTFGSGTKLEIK
B3: anti-TcfA monoclonal antibody 7E11 (antibody, V domains shown)
VH: EVQLQQSGAELVKPGASVKLSCTASGFNIKDTYIHWVKQRPEQGLEWIGRIDPANGNIIYASKFQGEATITADTSSNTAYMQLSSLTSGDTAVYYCSAMDYWGQGTSVTVSS
VL: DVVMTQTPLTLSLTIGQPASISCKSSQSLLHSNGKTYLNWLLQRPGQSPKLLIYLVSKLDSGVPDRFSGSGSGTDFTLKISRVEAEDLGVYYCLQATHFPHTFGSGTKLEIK
B4: anti-TcfA monoclonal antibody 20F4 (antibody, V domains shown)
VH: QIQLVQSGPELKKPGETVKISCKASGYTFTNYGMNWVKQAPGKGLKWMGWINTYTGEPTYADDFKGRFAFSLETSATTAYLQINNLKNEDTATYFCARAATGYFDYWGQGTTLTVSS
VL: DIVMSQSPSSLAVSAGEKVTMSCKSSQSLLYSSNQKNYLAWYQQKPGQSPKLLIYWASTRESGVPDRFTGSGSGTDFTLTISSVKAEDLAVYYCQQYYNEYTFGGGTKLEIK
B5: anti-TcfA monoclonal antibody 13E11 (antibody, V domains shown)
VH: EVQLVESGGGLVKPGGSRKLSCAASGFTFSDYGMHWVRQAPEKGLEWVAYISSGSSTIYYADTVKGRFTISRDNAKNTLFLQMTSLRSEDTAMYYCARPRSGRYFDYWGQGTTLTVSS
VL: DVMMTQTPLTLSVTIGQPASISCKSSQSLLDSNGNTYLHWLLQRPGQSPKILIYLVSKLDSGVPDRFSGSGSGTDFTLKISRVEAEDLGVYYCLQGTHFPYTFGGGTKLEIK
B6: anti-TcfA monoclonal antibody 14G11 (antibody, V domains shown)
VH: EVKLVESGGGLVQPGGSLSLSCAASGFTFTDYYMSWVRQPPGKALEWLGFIRNKANGYTTEYSASVKGRFTISRDNSQSILYLQMNALRAEDSATYYCARYRRDYYGSLNYYTMDYWGQGTSVTVSS
VL: DIQMTQSPASLSASVGETVTITCRASENIYSYLAWYQQKQGKSPQLLVYNAKTLAEGVPSRFSGSGSGTQFSLKINSLQPEDFGSYYCQNHYGIPLTFGAGTKLELK
B7: anti-TcfA monoclonal antibody 23F8 (antibody, V domains shown)
VH: EVQLVESGGGLVKPGGSRKLSCAASGFTFSDYGMHWVRQAPEKGLEWVAYISSGSRTIYYADTVKGRFTISRDNAKNTLFLQMTSLRSEDTAMYYCARLGYGYDWYFDVWGTGTTVTVSS
VL: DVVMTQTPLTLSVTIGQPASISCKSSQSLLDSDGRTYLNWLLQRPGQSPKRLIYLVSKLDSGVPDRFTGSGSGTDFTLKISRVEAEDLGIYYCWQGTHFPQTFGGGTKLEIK
B8: anti-TcfA monoclonal antibody 18B2 (antibody, V domains shown)
VH: QVQLQQSGAELVRPGTSVKMSCKAAGYTFTNYWIGWVKQRPGHGLEWIGDIYPGGVYTNYNENFKGKATLTADTSSSTAHMQLSSLTSEDSAIYYCVRGGKYGNFFAMDYWGQGTSVTVSS
VL: DIVITQDELSNPVTSGESVSISCRSSKSLLYKDGKTYLNWFLQRPGQSPQLLIYLMSTRASGVSDRFSGSGSGTDFTLEISRVKAEDVGVYYCQQLVEYPFTFGSGTKLEIK
B9: anti-TcfA monoclonal antibody 3E6 (antibody, V domains shown)
VH: EVKLVESGGGLVQPGGSLRLSCATSGFTFTDYYMSWVRQPPGKALEWMGFIRNKAKGYTTDYSASVKGRFTISRDDSQSILYLQMNTLRPEDSATYYCARNYDYSMDYWGQGTSVTVSS
VL: DIQLTQSPASLSASVGETVTITCRASDNIHKYLAWYQQKQGKSPQRLVYNAKTLADGVPSRFNGSGSGTQYSLKINSLQPEDFGIYYCQHFWSTPLTFGAGTKLELK

How the values were obtained:
Assay in all cases: indirect ELISA, plates coated with TcfA protein fragment
[1] = biological target: T1, TcfA peptide amino acids 288-304 …
[2] = biological target: T2, TcfA peptide amino acids 140-160 …
[3] = biological target: T3, TcfA peptide amino acids 305-323 …
[4] = biological target: T4, TcfA protein fragment amino acids 40-374

Binder	binding result [1]	binding result [2]	binding result [3]	also measured
B1	binds			
B2		binds		
B3		binds		
B4			binds	
B5	binds		binds	
B6			binds	
B7	binds			
B8				binding result [4]: binds
B9		binds		
